In series [1] the target is GST-Elk1(307-428) [GST: P08515].
Series [2] addresses GST-MAPKAP-K2(5-400), P49137.
In series [3] the target is T1, GST-SAP1(267-431), P28324.
T1 chain: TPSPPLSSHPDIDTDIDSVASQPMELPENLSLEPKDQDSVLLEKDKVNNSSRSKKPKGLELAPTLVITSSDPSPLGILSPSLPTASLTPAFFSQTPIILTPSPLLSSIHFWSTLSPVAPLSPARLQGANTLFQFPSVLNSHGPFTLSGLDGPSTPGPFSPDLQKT

Series [4] has as its target GST-SAP2(221-417) [GST: P08515].
The target in the next series is T2, GST-cJun(1-194), P05412.
T2 chain: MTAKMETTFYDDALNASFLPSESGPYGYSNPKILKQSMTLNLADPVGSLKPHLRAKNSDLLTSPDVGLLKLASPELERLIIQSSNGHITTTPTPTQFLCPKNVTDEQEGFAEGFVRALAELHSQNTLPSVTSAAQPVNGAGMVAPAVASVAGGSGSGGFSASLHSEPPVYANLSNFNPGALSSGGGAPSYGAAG

The target in series [5] is MAPKAP-K2 (substrate of Table 1, construct not stated), P49137.
Sequence of MAPKAP-K2 (substrate of Table 1, construct not stated), P49137 (P49137 46-400): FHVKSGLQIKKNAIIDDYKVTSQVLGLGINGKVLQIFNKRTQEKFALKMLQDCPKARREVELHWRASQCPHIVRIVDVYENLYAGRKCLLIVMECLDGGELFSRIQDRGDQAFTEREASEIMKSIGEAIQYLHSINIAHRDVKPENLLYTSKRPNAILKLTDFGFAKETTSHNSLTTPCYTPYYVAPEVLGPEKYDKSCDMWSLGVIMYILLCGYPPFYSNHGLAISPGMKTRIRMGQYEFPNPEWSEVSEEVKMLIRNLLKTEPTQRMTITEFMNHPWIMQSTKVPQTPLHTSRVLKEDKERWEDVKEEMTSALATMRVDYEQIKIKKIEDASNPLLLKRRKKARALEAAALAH
For another series, the target named is T3, GST-ATF2(19-96), P15336.
T3 chain: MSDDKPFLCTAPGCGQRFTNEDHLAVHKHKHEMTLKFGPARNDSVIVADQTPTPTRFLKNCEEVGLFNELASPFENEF

The target in series [6] is GST-MAPKAP-K2(46-400), P49137.
Sequence of GST-MAPKAP-K2(46-400), P49137 (P49137 46-400): as the sequence (P49137 46-400) above
Series [7] addresses T4, MalE-Mpk2, the Xenopus homologue of SAPK2a, P47812.
T4 chain: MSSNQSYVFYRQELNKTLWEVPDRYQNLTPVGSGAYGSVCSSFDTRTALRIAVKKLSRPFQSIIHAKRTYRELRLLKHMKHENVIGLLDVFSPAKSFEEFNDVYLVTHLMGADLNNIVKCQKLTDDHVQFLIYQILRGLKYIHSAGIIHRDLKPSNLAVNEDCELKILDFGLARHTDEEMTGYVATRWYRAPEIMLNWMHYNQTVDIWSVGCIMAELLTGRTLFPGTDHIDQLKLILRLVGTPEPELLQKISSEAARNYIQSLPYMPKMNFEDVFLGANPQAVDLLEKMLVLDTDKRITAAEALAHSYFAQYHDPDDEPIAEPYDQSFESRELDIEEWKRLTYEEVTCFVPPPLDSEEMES

A further series deals with T5, human GST-SAPK4.
T5 chain: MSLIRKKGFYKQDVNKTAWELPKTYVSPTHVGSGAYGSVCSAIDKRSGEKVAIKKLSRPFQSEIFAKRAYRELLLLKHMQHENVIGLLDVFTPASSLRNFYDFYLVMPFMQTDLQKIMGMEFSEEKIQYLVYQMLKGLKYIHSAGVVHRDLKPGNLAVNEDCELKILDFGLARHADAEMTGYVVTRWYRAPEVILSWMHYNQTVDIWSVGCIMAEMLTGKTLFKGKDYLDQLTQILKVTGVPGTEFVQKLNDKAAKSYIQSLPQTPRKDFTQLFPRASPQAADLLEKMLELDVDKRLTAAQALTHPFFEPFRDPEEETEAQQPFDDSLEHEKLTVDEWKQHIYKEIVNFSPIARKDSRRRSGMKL

Another series addresses T6, rat GST-SAPK3, Q63538.
T6 chain: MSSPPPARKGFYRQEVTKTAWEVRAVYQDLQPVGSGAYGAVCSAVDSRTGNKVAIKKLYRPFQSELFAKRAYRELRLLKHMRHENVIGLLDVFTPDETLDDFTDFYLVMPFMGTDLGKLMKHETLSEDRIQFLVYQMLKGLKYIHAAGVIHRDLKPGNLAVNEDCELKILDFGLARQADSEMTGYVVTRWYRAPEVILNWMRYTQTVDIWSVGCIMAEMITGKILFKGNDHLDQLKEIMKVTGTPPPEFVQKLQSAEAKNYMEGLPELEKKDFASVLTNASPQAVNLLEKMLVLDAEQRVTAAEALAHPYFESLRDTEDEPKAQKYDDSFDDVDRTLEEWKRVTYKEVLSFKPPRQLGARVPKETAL

Sequence of GST-MAPKAP-K3, Q16644 (Q16644 whole entry, looked up): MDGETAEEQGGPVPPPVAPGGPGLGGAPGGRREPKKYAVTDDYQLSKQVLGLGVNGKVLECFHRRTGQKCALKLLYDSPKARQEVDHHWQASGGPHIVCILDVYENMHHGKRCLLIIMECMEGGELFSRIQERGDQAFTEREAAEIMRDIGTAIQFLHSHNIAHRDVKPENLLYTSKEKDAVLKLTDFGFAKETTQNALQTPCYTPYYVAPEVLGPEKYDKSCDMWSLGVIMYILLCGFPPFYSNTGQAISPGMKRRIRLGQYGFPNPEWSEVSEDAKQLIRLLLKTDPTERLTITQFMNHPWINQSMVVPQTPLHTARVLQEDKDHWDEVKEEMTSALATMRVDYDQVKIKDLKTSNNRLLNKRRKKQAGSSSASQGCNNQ
Sequence of GST-MAPKAP-K2(5-400), P49137 (P49137 5-400): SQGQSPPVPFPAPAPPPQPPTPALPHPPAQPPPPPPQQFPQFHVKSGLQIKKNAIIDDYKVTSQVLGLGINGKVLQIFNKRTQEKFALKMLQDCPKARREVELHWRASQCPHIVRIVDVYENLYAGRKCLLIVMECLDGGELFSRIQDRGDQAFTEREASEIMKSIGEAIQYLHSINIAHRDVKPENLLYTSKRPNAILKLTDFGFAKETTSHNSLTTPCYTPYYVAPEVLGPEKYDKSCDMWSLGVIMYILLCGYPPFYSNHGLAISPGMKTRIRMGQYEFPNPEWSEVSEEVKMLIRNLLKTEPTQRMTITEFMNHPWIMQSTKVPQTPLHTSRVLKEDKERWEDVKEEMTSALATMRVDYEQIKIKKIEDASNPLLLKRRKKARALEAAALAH

B1: human GST-SAPK4 (protein)
chain: MSLIRKKGFYKQDVNKTAWELPKTYVSPTHVGSGAYGSVCSAIDKRSGEKVAIKKLSRPFQSEIFAKRAYRELLLLKHMQHENVIGLLDVFTPASSLRNFYDFYLVMPFMQTDLQKIMGMEFSEEKIQYLVYQMLKGLKYIHSAGVVHRDLKPGNLAVNEDCELKILDFGLARHADAEMTGYVVTRWYRAPEVILSWMHYNQTVDIWSVGCIMAEMLTGKTLFKGKDYLDQLTQILKVTGVPGTEFVQKLNDKAAKSYIQSLPQTPRKDFTQLFPRASPQAADLLEKMLELDVDKRLTAAQALTHPFFEPFRDPEEETEAQQPFDDSLEHEKLTVDEWKQHIYKEIVNFSPIARKDSRRRSGMKL
As to B1, the rate of phosphorylation of substrate (1 µM) relative to MBP (% of rate with MBP) in series [1] was 175; with GST-MAPKAP-K3, Q16644 it was 18; in series [3] it was 62; in series [4], 8; with GST-cJun(1-194), P05412, 6; in series [5] it was 28. In addition, the “activation of MAPKAP-K2 (initial rate and half-time for maximal activation)” value in [2] came to 20 times slower. In addition, the “activation of MAPKAP-K3 (initial rate and half-time for maximal activation)” value with GST-MAPKAP-K3, Q16644 is 20 times slower.

B2: human GST-SAPK2b (protein)
chain: MSGPRAGFYRQELNKTVWEVPQRLQGLRPVGSGAYGSVCSAYDARLRQKVAVKKLSRPFQSLIHARRTYRELRLLKHLKHENVIGLLDVFTPATSIEDFSEVYLVTTLMGADLNNIVKCQALSDEHVQFLVYQLLRGLKYIHSAGIIHRDLKPSNVAVNEDCELRILDFGLARQADEEMTGYVATRWYRAPEIMLNWMHYNQTVDIWSVGCIMAELLQGKALFPGSDYIDQLKRIMEVVGTPSPEVLAKISSEHARTYIQSLPPMPQKDLSSIFRGANPLAIDLLGRMLVLDSDQRVSAAEALAHAYFSQYHDPEDEPEAEPYDESVEAKERTLEEWKELTYQEVLSFKPPEPPKPPGSLEIEQ
On to B2, for which the rate of phosphorylation of substrate (1 µM) relative to MBP (% of rate with MBP) came out at 62 with GST-ATF2(19-96), P15336; 136 in [1]; 66 in the series with GST-MAPKAP-K3, Q16644; 27 in series [3]; 18 in series [4]; 7 with GST-cJun(1-194), P05412. The protein further showed a rate of phosphorylation of substrate (1 µM) relative to MBP (% of rate with MBP) in series [5] of 83.

B3: rat GST-SAPK3 (protein)
chain: MSSPPPARKGFYRQEVTKTAWEVRAVYQDLQPVGSGAYGAVCSAVDSRTGNKVAIKKLYRPFQSELFAKRAYRELRLLKHMRHENVIGLLDVFTPDETLDDFTDFYLVMPFMGTDLGKLMKHETLSEDRIQFLVYQMLKGLKYIHAAGVIHRDLKPGNLAVNEDCELKILDFGLARQADSEMTGYVVTRWYRAPEVILNWMRYTQTVDIWSVGCIMAEMITGKILFKGNDHLDQLKEIMKVTGTPPPEFVQKLQSAEAKNYMEGLPELEKKDFASVLTNASPQAVNLLEKMLVLDAEQRVTAAEALAHPYFESLRDTEDEPKAQKYDDSFDDVDRTLEEWKRVTYKEVLSFKPPRQLGARVPKETAL
For the protein B3, the “phosphorylation sites on ATF2 (32P, mutants, phosphoamino acid analysis)” value in the series with GST-ATF2(19-96), P15336 is “SAPK2 and SAPK3 phosphorylate ATF2 at Thr69 and Thr-71, and that only SAPK3 phosphorylates Ser-90”. Besides, the rate of phosphorylation of substrate (1 µM) relative to MBP (relative to MBP (=100)) turned out to be 107 with GST-ATF2(19-96), P15336; 181 in series [1]; 108 in series [3]; 20 in [4]; 2 with GST-cJun(1-194), P05412. In addition, in series [6], the “activation of MAPKAP-K2 (initial rate and half time for maximal activation)” value stood at 20 times slower. Moreover, the “activation of MAPKAP-K3 (initial rate and half time for maximal activation)” value with GST-MAPKAP-K3, Q16644 turned out to be 20 times slower. For the same protein, the rate of phosphorylation of substrate (1 µM) relative to MBP (% of rate with MBP) with GST-MAPKAP-K3, Q16644 is 20; in series [5] it was 25.

B4: SKK3 purified from rabbit skeletal muscle (protein)
chain: MSQSKGKKRNPGLKIPKEAFEQPQTSSTPPRDLDSKACISIGNQNFEVKADDLEPIMELGRGAYGVVEKMRHVPSGQIMAVKRIRATVNSQEQKRLLMDLDISMRTVDCPFTVTFYGALFREGDVWICMELMDTSLDKFYKQVIDKGQTIPEDILGKIAVSIVKALEHLHSKLSVIHRDVKPSNVLINTLGQVKMCDFGISGYLVDSVAKTIDAGCKPYMAPERINPELNQKGYSVKSDIWSLGITMIELAILRFPYDSWGTPFQQLKQVVEEPSPQLPADKFSAEFVDFTSQCLKKNSKERPTYPELMQHPFFTVHESKATDVASFVKLILGD
As for B4, the “32P phosphorylation, phosphoamino acid analysis” value with GST-SAPK4(D168A) was “the inactive SAPK4 mutant could only be phosphorylated on tyrosine and not on threonine”. In series [7], the “activation of SAPK2 (MBP kinase activity) in vitro” value is “The rate of activation of SAPK3 by SKK3 was similar to that of SAPK2”. For the same protein, in the series with human GST-SAPK4, the “activation of SAPK4 (MBP kinase activity) in vitro” value is on record as “SAPK4 was activated in vitro by a highly purified preparation of SKK3 from skeletal muscle”, the “phosphorylation stoichiometry at plateau” value was “reached a plateau at ˜1.6 mol/mol subunit” and the “rate of activation compared with SAPK2a” value is on record as “occurred two- to three-fold more slowly than that of SAPK2a”. Further, the “activation of SAPK3 (MBP kinase activity) in vitro” value with rat GST-SAPK3, Q63538 is “SAPK3 was activated in vitro by a highly purified preparation of SKK3 from skeletal muscle”.

B5: MalE-Mpk2, the Xenopus homologue of SAPK2a (protein)
chain: MSSNQSYVFYRQELNKTLWEVPDRYQNLTPVGSGAYGSVCSSFDTRTALRIAVKKLSRPFQSIIHAKRTYRELRLLKHMKHENVIGLLDVFSPAKSFEEFNDVYLVTHLMGADLNNIVKCQKLTDDHVQFLIYQILRGLKYIHSAGIIHRDLKPSNLAVNEDCELKILDFGLARHTDEEMTGYVATRWYRAPEIMLNWMHYNQTVDIWSVGCIMAELLTGRTLFPGTDHIDQLKLILRLVGTPEPELLQKISSEAARNYIQSLPYMPKMNFEDVFLGANPQAVDLLEKMLVLDTDKRITAAEALAHSYFAQYHDPDDEPIAEPYDQSFESRELDIEEWKRLTYEEVTCFVPPPLDSEEMES
B5: the “phosphorylation sites on ATF2 (32P, mutants, phosphoamino acid analysis)” value in the series with GST-ATF2(19-96), P15336 is “SAPK2 and SAPK3 phosphorylate ATF2 at Thr69 and Thr-71, and that only SAPK3 phosphorylates Ser-90”. In addition, the rate of phosphorylation of substrate (1 µM) relative to MBP (% of rate with MBP) with GST-ATF2(19-96), P15336 worked out at 40; in [1] it was 90; with GST-MAPKAP-K3, Q16644, 87; in [3], 25; in the series with GST-cJun(1-194), P05412 it was 4; in series [5], 90. Besides, the rate of phosphorylation of substrate (1 µM) relative to MBP (relative to MBP (=100)) was determined as 86 with GST-ATF2(19-96), P15336; 122 in series [1]; 55 in series [3]; 2 with GST-cJun(1-194), P05412.

These data come from patent publication US6617117.
